In PMC6707239 (Scientific Reports, 2019):
Changes are numbered by the printed parent chain. Names may count otherwise.

B1: human mitochondrial hsp60 D3G mutant (MitCHAP-60) (natural protein, UniProt P10809 27-573, looked up)
chain: AKGVKFGADARALMLQGVDLLADAVAVTMGPKGRTVIIEQSWGSPKVTKDGVTVAKSIDLKDKYKNIGAKLVQDVANNTNEEAGDGTTTATVLARSIAKEGFEKISKGANPVEIRRGVMLAVDAVIAELKKQSKPVTTPEEIAQVATISANGDKEIGNIISDAMKKVGRKGVITVKDGKTLNDELEIIEGMKFDRGYISPYFINTSKGQKCEFQDAYVLLSEKKISSIQSIVPALEIANAHRKPLVIIAEDVDGEALSTLVLNRLKVGLQVVAVKAPGFGDNRKNQLKDMAIATGGAVFGEEGLTLNLEDVQPHDLGKVGEVIVTKDDAMLLKGKGDKAQIEKRIQEIIEQLDVTTSEYEKEKLNERLAKLSDGVAVLKVGGTSDVEVNEKKDRVTDALNATRAAVEEGIVLGGGCALLRCIPALDSLTPANEDQKIGIEIIKRTLKIPAMTIAKNAGVEGSLIVEKIMQSSSEVGYDAMAGDFVNMVEKGIIDPTKVVRTALLDAAGVASLLTTAEVVVTEIPKEEKDPGMGAMGGMGGGMGGGMF
notes: human mitochondrial hsp60 (HspD1), mature protein without the mitochondrial signal peptide, disease mutation D3G, cloned into pET-22b; numbers count on: the mature protein; Mutation found in patients with MitCHAP-60; also called D3G-hsp60; source: E. coli BL21 (DE3), purified (ammonium sulfate, anion-exchange, size-exclusion chromatography)
B2: human mitochondrial hsp60 V72I mutant (SPG13) (natural protein, UniProt P10809 27-573, looked up)
chain: B1 chain with G3D, V72I
notes: human mitochondrial hsp60 (HspD1), mature protein without the mitochondrial signal peptide, disease mutation V72I, cloned into pET-22b; numbers count on: the mature protein; Mutation linked to SPG13; source: E. coli BL21 (DE3), purified (ammonium sulfate, anion-exchange, size-exclusion chromatography)

Biological target: the molecule itself
Experiment: dynamic light scattering; Malvern Zetasizer Nano ZS, hsp60 (wild type or mutant) without nucleotide (APO); percent volume

Protein	stoichiometry N
B1	14
B2	14
